In patent US20230331799A1 (XILIO DEVELOPMENT, published 2023):

B1: Recombinant Human IL-15R alpha Fc chimera Protein (CD215) (Fc fusion, UniProt Q13261 31-205, looked up)
chain: ITCPPPMSVEHADIWVKSYSLYSRERYICNSGFKRKAGTSSLTECVLNKATNVAHWTTPSLKCIRDPALVHQRPAPPSTVTTAGVTPQPESLSPSGKEPAASSPSSNNTAATTAAIVPGSQLMPSKSPSTGTTEISSHESSHGTPSQTTAKNWELTASASHQPPGVYPQGHSDTT
notes: also called human CD215; Fc part of the bought chimera not given
B2: Recombinant Human IL-2 R beta Protein (CD122) (receptor, UniProt P14784 27-239, looked up)
chain: AVNGTSQFTCFYNSRANISCVWSQDGALQDTSCQVHAWPDRRRWNQTCELLPVSQASWACNLILGAPDSQKLTTVDIVTLRVLCREGVRWRVMAIQDFKPFENLRLMAPISLQVVHVETHRCNISWEISQASHYFERHLEFEARTLSPGHTWEEAPLLTLKQKQEWICLETLTPDTQYEFQVRVKPLQGEFTTWSPWSQPLAFRTKPAALGKD
notes: also called human CD122

Key:
AK564 [1] = biological target: T1, AK564 (human, UniProt Q13261 31-96); assay: SPR (Biacore 8K), multi-cycle kinetics, human CD215 immobilised by amine coupling, construct as analyte, 25 C
T1 construct: also called IL-15 masked non-cleavable AK564

AK564 [2] = biological target: T1, AK564; assay: SPR (Biacore 8K), multi-cycle kinetics, human CD122 immobilised by amine coupling, construct as analyte, 25 C

Binder | binding result (AK564 [1]) | binding result (AK564 [2])
B1 | no binding (tested: Top 40 nM, 2x dilution) | 
B2 |  | no binding (tested: Top 500 nM, 2x dilution)
